Blank lines part the entries; values can stand above or below the sequence they belong to.
Tests used:
HLA-B*39:01 = test: IEDB peptide-MHC binding, purified MHC/competitive/fluorescence; filed as Kd, often an IC50 or EC50 that approximates it; ≥ and ≤ were set here for values at or beyond the usual limits of such assays; details: source organism: Escherichia coli 536
HLA-B*40:01 [1] = test: as above; details: source organism: Escherichia coli 536
HLA-B*15:01 [2] = test: as above; details: source organism: Homo sapiens
HLA-A*02:01 = test: as above
HLA-B*51:01 [3] = test: as above; details: source organism: Homo sapiens
HLA-B*18:01 [4] = test: as above; details: source organism: Homo sapiens
HLA-C*12:03 = test: IEDB peptide-MHC binding, purified MHC/direct/fluorescence; filed as Kd, often an IC50 or EC50 that approximates it; ≥ and ≤ were set here for values at or beyond the usual limits of such assays
HLA-B*07:02 [5] = test: as above; details: source organism: Macaca fascicularis
HLA-B*15:01 [6] = test: as above
HLA-B*40:01 [7] = test: as above; details: source organism: SARS-CoV1
HLA-C*08:02 = test: as above
HLA-A*26:01 [8] = test: as above
HLA-B*58:01 [9] = test: as above; details: source organism: SARS-CoV1
HLA-A*01:01 [10] = test: as above; details: source organism: SARS-CoV1
HLA-A*30:02 = test: IEDB peptide-MHC binding, purified MHC/competitive/radioactivity; filed as Kd, often an IC50 or EC50 that approximates it; ≥ and ≤ were set here for values at or beyond the usual limits of such assays; details: source organism: SARS coronavirus Tor2
HLA-A*29:02 = test: as above; details: source organism: SARS coronavirus Tor2
HLA-A*24:02 = test: as above; details: source organism: SARS coronavirus Tor2
HLA-A*23:01 = test: as above; details: source organism: SARS coronavirus Tor2
HLA-C*03:03 = test: IEDB peptide-MHC binding, purified MHC/direct/fluorescence; filed as Kd, often an IC50 or EC50 that approximates it; ≥ and ≤ were set here for values at or beyond the usual limits of such assays
HLA-B*51:01 [11] = test: as above; details: source organism: Vibrio cholerae O1 biovar El Tor
HLA-B*18:01 [12] = test: as above; details: source organism: Vibrio cholerae O1 biovar El Tor
HLA-B*27:03 = test: as above; details: source organism: Vibrio cholerae O1 biovar El Tor
HLA-A*03:01 [13] = test: as above; details: source organism: Vibrio cholerae O1 biovar El Tor
HLA-A*02:19 = test: as above; details: source organism: Vibrio cholerae O1 biovar El Tor
HLA-B*46:01 = test: as above; details: source organism: Vibrio cholerae O1 biovar El Tor
HLA-A*33:01 = test: IEDB peptide-MHC binding, purified MHC/competitive/radioactivity; filed as Kd, often an IC50 or EC50 that approximates it; ≥ and ≤ were set here for values at or beyond the usual limits of such assays; details: source organism: Vaccinia virus WR
HLA-A*68:01 = test: as above; details: source organism: Vaccinia virus WR
HLA-B*35:01 = test: as above; details: source organism: Vaccinia virus WR
HLA-A*31:01 = test: as above; details: source organism: Vaccinia virus WR
HLA-B*53:01 = test: as above; details: source organism: Vaccinia virus WR
HLA-B*51:01 [14] = test: as above; details: source organism: Vaccinia virus WR
HLA-A*11:01 = test: as above; details: source organism: Vaccinia virus WR
HLA-A*03:01 [15] = test: as above; details: source organism: Vaccinia virus WR
HLA-B*54:01 = test: as above; details: source organism: Vaccinia virus WR
HLA-B*07:02 [16] = test: as above; details: source organism: Vaccinia virus WR
HLA-A*01:01 [17] = test: IEDB peptide-MHC binding, purified MHC/competitive/fluorescence; ≥ and ≤ were set here for values at or beyond the usual limits of such assays
HLA-A*26:01 [18] = test: IEDB peptide-MHC binding, purified MHC/competitive/fluorescence; filed as Kd, often an IC50 or EC50 that approximates it; ≥ and ≤ were set here for values at or beyond the usual limits of such assays; details: source organism: Escherichia coli APEC O1
HLA-B*58:01 [19] = test: as above; details: source organism: Escherichia coli APEC O1
HLA-A*01:01 [20] = test: as above; details: source organism: Escherichia coli APEC O1
HLA-B*08:01 = test: as above; details: source organism: Yersinia pestis Nepal516
HLA-C*05:01 = test: IEDB peptide-MHC binding, purified MHC/direct/fluorescence; filed as Kd, often an IC50 or EC50 that approximates it; ≥ and ≤ were set here for values at or beyond the usual limits of such assays; details: source organism: Yersinia pestis Nepal516
HLA-C*14:02 = test: as above; details: source organism: Yersinia pestis Nepal516
HLA-C*15:02 = test: as above; details: source organism: Yersinia pestis Nepal516
HLA-C*06:02 = test: as above; details: source organism: Yersinia pestis Nepal516
HLA-B*15:01 [21] = test: IEDB peptide-MHC binding, purified MHC/competitive/fluorescence; ≥ and ≤ were set here for values at or beyond the usual limits of such assays; details: source organism: Vaccinia virus Copenhagen
[22] = source organism: Vibrio cholerae B33
[23] = source organism: Vibrio cholerae O1 biovar El Tor
[24] = source organism: Vaccinia virus Copenhagen

Kd (HLA-B*39:01): 27 nM | Kd (HLA-B*40:01 [1]): 8.3 nM
Sequence: EEQQSMLAL

Kd (HLA-B*15:01 [2]): ≥ 20000 nM | Kd (HLA-A*02:01; source organism: Homo sapiens): ≥ 20000 nM | Kd (HLA-B*51:01 [3]): ≥ 20000 nM | Kd (HLA-B*18:01 [4]): ≥ 20000 nM | Kd (HLA-C*12:03; source organism: Homo sapiens): ≤ 1 nM | Kd (HLA-B*07:02 [5]): 3.1 nM
Sequence: FAAPHRGVA

Sequence: FADINGKLY
Kd (HLA-B*15:01 [6]; source organism: SARS-CoV1): 3140 nM | Kd (HLA-B*40:01 [7]): ≥ 71300 nM | Kd (HLA-C*08:02; source organism: SARS-CoV1): ≤ 1 nM | Kd (HLA-A*26:01 [8]; source organism: SARS-CoV1): 562 nM | Kd (HLA-B*58:01 [9]): 2250 nM | Kd (HLA-A*01:01 [10]): 191 nM | Kd (HLA-A*30:02): 1600 nM | Kd (HLA-A*29:02): 17 nM | Kd (HLA-A*24:02): ≥ 77600 nM | Kd (HLA-A*23:01): ≥ 77800 nM

Sequence: FATPAFFLI
Kd (HLA-C*03:03; [22]): ≤ 1 nM | Kd (HLA-B*15:01 [6]; [23]): ≥ 20000 nM | Kd (HLA-B*51:01 [11]): 859 nM | Kd (HLA-B*18:01 [12]): ≥ 20000 nM | Kd (HLA-C*08:02; [22]): 198 nM | Kd (HLA-B*27:03): ≥ 20000 nM | Kd (HLA-A*26:01 [8]; [23]): ≥ 20000 nM | Kd (HLA-A*03:01 [13]): ≥ 20000 nM | Kd (HLA-A*02:19): ≥ 20000 nM | Kd (HLA-B*46:01): ≥ 20000 nM

Sequence: RVYEALYYV
Kd (HLA-A*02:01; [24]): 0.8 nM | Kd (HLA-C*03:03; [24]): 1240 nM | Kd (HLA-C*12:03; [24]): 26 nM | Kd (HLA-C*08:02; [24]): ≥ 20000 nM | Kd (HLA-A*33:01): ≥ 77700 nM | Kd (HLA-A*68:01): ≥ 77700 nM | Kd (HLA-B*35:01): ≥ 77400 nM | Kd (HLA-A*31:01): 13.7 nM | Kd (HLA-B*53:01): ≥ 78200 nM | Kd (HLA-B*51:01 [14]): ≥ 67800 nM | Kd (HLA-A*11:01): 80.2 nM | Kd (HLA-A*03:01 [15]): 717 nM | Kd (HLA-B*54:01): 6410 nM | Kd (HLA-B*07:02 [16]): ≥ 53800 nM

Sequence: SSDPGTNTT
IC50 (HLA-A*01:01 [17]; source organism: Zaire ebolavirus): ≥ 162000 nM

Kd (HLA-A*26:01 [18]): 16 nM | Kd (HLA-B*58:01 [19]): 36 nM | Kd (HLA-A*01:01 [20]): 5.1 nM | Kd (HLA-C*08:02; source organism: Escherichia coli APEC O1): 1010 nM
Sequence: YTTDVNQLY

Sequence: YVIKKSSPL
Kd (HLA-B*08:01): 196 nM | Kd (HLA-C*03:03; source organism: Yersinia pestis Nepal516): 2 nM | Kd (HLA-C*05:01): ≥ 20000 nM | Kd (HLA-C*14:02): 163 nM | Kd (HLA-C*15:02): 3950 nM | Kd (HLA-C*06:02): ≥ 20000 nM

Sequence: YVTLNASQY
Kd (HLA-A*33:01): ≥ 77700 nM | Kd (HLA-A*68:01): 10.7 nM | Kd (HLA-A*31:01): ≥ 51400 nM | Kd (HLA-A*11:01): 1120 nM | Kd (HLA-A*03:01 [15]): 4770 nM | IC50 (HLA-B*15:01 [21]): 8060 nM | IC50 (HLA-A*01:01 [17]; [24]): 17100 nM

— the Immune Epitope Database (IEDB)
